In US20230391887A1:

Columns and labels:
[1] = target: meditope-enabled Trastuzumab v2.0 (83E meditope enabled antibody trastuzumab); experiment: SPR, antibody immobilized at 1500 RU, 37 C, 1:1 fit
[2] = target: meditope-enabled Trastuzumab v2.0 (83E meditope enabled antibody trastuzumab); experiment: SPR, antibody immobilized at 150 RU, 37 C, 1:1 fit
[3] = target: meditope-enabled Trastuzumab v2.0 (83E meditope enabled antibody trastuzumab); experiment: SPR, antibody immobilized at 1500 RU, 37 C
[4] = target: meditope-enabled Trastuzumab v2.0 (83E meditope enabled antibody trastuzumab); experiment: SPR, antibody immobilized at 750 RU, 37 C, 1:1 fit

B1: trivalent meditope (TVM) (protein)
chain: GGSAAPSSAPSPSAPCQFDLSTRRLSCGGASPAASPSAPSSPAPKAPSAAPSSAPSPSAPGGCQFDLSTRRLSCGGASPAASPSAPSSPAPKAPSAAPSSAPSPSAPGGCQFDLSTRRLSCGGSPSAPSSPSSPKLPETG
Kd [1]: 8.2 nM
koff [1]: 8e-05 s⁻¹
kon [1]: 9800 M⁻¹ s⁻¹
t1/2 [1]: 2.4 h
Kd [2]: 51.2 nM
koff [2]: 0.00045 s⁻¹
kon [2]: 8700 M⁻¹ s⁻¹
t1/2 [2]: 0.4 h
fold improvement of half-life against the monovalent meditope [3]: > 30 fold
half-life [3]: 2.42 h
Kd [4]: 14 nM
koff [4]: 0.00014 s⁻¹
kon [4]: 10000 M⁻¹ s⁻¹
t1/2 [4]: 1.3 h
